Test results reported in patent US20210340217A1, “NOVEL PEPTIDES AND COMBINATION OF PEPTIDES FOR USE IN IMMUNOTHERAPY AGAINST OVARIAN CANCER AND OTHER CANCERS” (Immatics Biotechnologies GmbH, priority 2017, published 2021).

Molecular target: HLA-B*07:02 (Homo sapiens, UniProt P01889)
Assay: MHC binding assay (UV-ligand exchange, beta2m ELISA)
Conditions: peptide exchange yield
Excerpt: Candidate peptides for T cell based therapies according to the present invention were further tested for their MHC binding capacity (affinity). The individual peptide-MHC complexes were produced by UV-ligand exchange, where a UV-sensitive peptide is cleaved upon UV-irradiation, and exchanged with the peptide of interest as analyzed. Only peptide candidates that can effectively bind and stabilize the peptide-receptive MHC molecules prevent dissociation of the MHC complexes. To determine the yield of the exchange reaction, an ELISA was performed based on the detection of the light chain (β2m) of stabilized MHC complexes. The assay was performed as generally described in Rodenko et al. (Rodenko et al., 2006).
96 well MAXISorp plates (NUNC) were coated over night with 2 ug/ml streptavidin in PBS at room temperature, washed 4× and blocked for 1 h at 37° C. in 2% BSA containing blocking buffer. Refolded HLA-A*02:01/MLA-001 monomers served as standards, covering the range of 15-500 ng/ml. Peptide-MHC monomers of the UV-exchange reaction were diluted 100-fold in blocking buffer. Samples were incubated for 1 h at 37° C., washed four times, incubated with 2 ug/ml HRP conjugated anti-β2m for 1h at 37° C., washed again and detected with TMB solution that is stopped with […]. Absorption was measured at 450 nm. Candidate peptides that show a high exchange yield (preferably higher than 50%, most preferred higher than 75%) are generally preferred for a generation and production of antibodies or fragments thereof, and/or T cell receptors or fragments thereof, as they show sufficient avidity to the MHC molecules and prevent dissociation of the MHC complexes.

Row | Peptide exchange | Substance
1 | “+++” (>50 = +++) | 131 (APTEDLKAL; listed as Homo sapiens) [compound 131]
2 | “++” (>20% = ++) | 299 (HPGSSALHY; listed as Homo sapiens) [compound 299]
3 | “+++” (>50 = +++) | 32 (SPNKGTLSV; listed as Homo sapiens) [compound 32]
4 | “+++” (>50 = +++) | 307 (LPYGPGSEAAAF; listed as Homo sapiens) [compound 307]
5 | “+” (>10% = +) | 370 (PGGTRQSL; listed as Homo sapiens) [compound 370]
6 | “+++” (>50 = +++) | 357 (SPSPVPTTL; listed as Homo sapiens) [compound 357]
7 | “+++” (>50 = +++) | 325 (GPRNAQRVL; listed as Homo sapiens) [compound 325]
8 | “+++” (>50 = +++) | 317 (FPFQPGSV; listed as Homo sapiens) [compound 317]
9 | “+++” (>50 = +++) | 312 (LPYFREFSM; listed as Homo sapiens) [compound 312]
10 | “++” (>20% = ++) | 306 (APVIFSHSA; listed as Homo sapiens) [compound 306]
11 | “+++” (>50 = +++) | 372 (IPRNPPPTLL; listed as Homo sapiens) [compound 372]
12 | “+++” (>50 = +++) | 378 (RPRSPAGQVAA; listed as Homo sapiens) [compound 378]
13 | “+++” (>50 = +++) | 133 (MPNLPSTTSL; listed as Homo sapiens) [compound 133]
14 | “+++” (>50 = +++) | 134 (RPIVPGPLL; listed as Homo sapiens) [compound 134]
15 | “++” (>20% = ++) | 363 (TAKTPDATF; listed as Homo sapiens) [compound 363]
16 | “++” (>20% = ++) | 308 (YPEGAAYEF; listed as Homo sapiens) [compound 308]

Row | Peptide exchange | Substance
17 | “+++” (>50 = +++) | 297 (TVREASGLL; listed as Homo sapiens) [compound 297]
18 | “+++” (>50 = +++) | 389 (SPGAQRTFFQL; listed as Homo sapiens) [compound 389]
19 | “+++” (>50 = +++) | 148 (KPYGGSGPL; listed as Homo sapiens) [compound 148]
20 | “++” (>20% = ++) | 365 (TPLATTQRFTY; listed as Homo sapiens) [compound 365]
21 | “+++” (>50 = +++) | 40 (KPGTSYRVTL; listed as Homo sapiens) [compound 40]
22 | “++++” (>75% = ++++) | 384 (YPGLRGSPM; listed as Homo sapiens) [compound 384]
23 | “+++” (>50 = +++) | 128 (YPRTITPGM; listed as Homo sapiens) [compound 128]
24 | “+++” (>50 = +++) | 337 (HPVETSSAL; listed as Homo sapiens) [compound 337]
25 | “+++” (>50 = +++) | 302 (RVEEVRALL; listed as Homo sapiens) [compound 302]
26 | “+++” (>50 = +++) | 124 (LPSDSHFKITF; listed as Homo sapiens) [compound 124]
27 | “++” (>20% = ++) | 338 (HVTKTQATF; listed as Homo sapiens) [compound 338]
28 | “+++” (>50 = +++) | 304 (LPRPGAVL; listed as Homo sapiens) [compound 304]
29 | “+++” (>50 = +++) | 329 (FPAMTESGGMIL; listed as Homo sapiens) [compound 329]
30 | “+++” (>50 = +++) | 147 (APRWFPQPTVV; listed as Homo sapiens) [compound 147]
31 | “+++” (>50 = +++) | 362 (SPVPVTSLF; listed as Homo sapiens) [compound 362]
32 | “++” (>20% = ++) | 326 (VPSEIDAAF; listed as Homo sapiens) [compound 326]

The remaining lines, values behind:

Row | Substance | Peptide exchange
33 | 327 (SPLPVTSLI; listed as Homo sapiens) [compound 327] | “+++” (>50 = +++)
34 | 336 (HPKTESATPAAY; listed as Homo sapiens) [compound 336] | “++” (>20% = ++)
35 | 380 (IPTYGRTF; listed as Homo sapiens) [compound 380] | “+++” (>50 = +++)
36 | 137 (SPGATSRGTL; listed as Homo sapiens) [compound 137] | “+++” (>50 = +++)
37 | 295 (YPLRGSSIFGL; listed as Homo sapiens) [compound 295] | “+++” (>50 = +++)
38 | 313 (KVKSDRSVF; listed as Homo sapiens) [compound 313] | “+” (>10% = +)
39 | 121 (VPNQSSESL; listed as Homo sapiens) [compound 121] | “+++” (>50 = +++)
40 | 342 (LPLGTSMTF; listed as Homo sapiens) [compound 342] | “+++” (>50 = +++)
41 | 340 (LPEISTRTM; listed as Homo sapiens) [compound 340] | “++” (>20% = ++)
42 | 368 (VPTPVFPTM; listed as Homo sapiens) [compound 368] | “++” (>20% = ++)
43 | 379 (GPFPLVYVL; listed as Homo sapiens) [compound 379] | “+++” (>50 = +++)
44 | 339 (LPAGTTGSLVF; listed as Homo sapiens) [compound 339] | “+++” (>50 = +++)
45 | 118 (SPASRSISL; listed as Homo sapiens) [compound 118] | “+++” (>50 = +++)
46 | 374 (NPIGDTGVKF; listed as Homo sapiens) [compound 374] | “+++” (>50 = +++)
47 | 303 (LPMWKVTAF; listed as Homo sapiens) [compound 303] | “+++” (>50 = +++)
48 | 33 (SPTFHLTL; listed as Homo sapiens) [compound 33] | “+++” (>50 = +++)
49 | 391 (APSTPRITTF; listed as Homo sapiens) [compound 391] | “+++” (>50 = +++)
50 | 140 (SPRTEASSAVL; listed as Homo sapiens) [compound 140] | “+++” (>50 = +++)
51 | 328 (EPVTSSLPNF; listed as Homo sapiens) [compound 328] | “++” (>20% = ++)
52 | 381 (LPEQTPLAF; listed as Homo sapiens) [compound 381] | “++” (>20% = ++)
53 | 341 (LPLDTSTTL; listed as Homo sapiens) [compound 341] | “+++” (>50 = +++)

Row | Substance | Peptide exchange
54 | 376 (RPRSPAGQVA; listed as Homo sapiens) [compound 376] | “+++” (>50 = +++)
55 | 301 (SPRRSPRISF; listed as Homo sapiens) [compound 301] | “++” (>20% = ++)
56 | 353 (SPAMTTPSL; listed as Homo sapiens) [compound 353] | “+++” (>50 = +++)
57 | 323 (RPMPNLRSV; listed as Homo sapiens) [compound 323] | “+++” (>50 = +++)
58 | 298 (YPTEHVQF; listed as Homo sapiens) [compound 298] | “++” (>20% = ++)
59 | 385 (SPALHIGSV; listed as Homo sapiens) [compound 385] | “+++” (>50 = +++)
60 | 335 (HPDPVGPGL; listed as Homo sapiens) [compound 335] | “++” (>20% = ++)
61 | 315 (SPRENFPDTL; listed as Homo sapiens) [compound 315] | “+++” (>50 = +++)
62 | 350 (NPSSTTTEF; listed as Homo sapiens) [compound 350] | “+++” (>50 = +++)
63 | 373 (RPRALRDLRIL; listed as Homo sapiens) [compound 373] | “+++” (>50 = +++)
64 | 39 (RPAPFEVVF; listed as Homo sapiens) [compound 39] | “+++” (>50 = +++)
65 | 330 (FPFVTGSTEM; listed as Homo sapiens) [compound 330] | “++” (>20% = ++)
66 | 352 (SPAETSTNM; listed as Homo sapiens) [compound 352] | “+++” (>50 = +++)
67 | 347 (MPLTTGSQGM; listed as Homo sapiens) [compound 347] | “++” (>20% = ++)
68 | 129 (APRPASSL; listed as Homo sapiens) [compound 129] | “+++” (>50 = +++)
69 | 382 (SPMHDRWTF; listed as Homo sapiens) [compound 382] | “+++” (>50 = +++)
70 | 144 (SPSPVSSTL; listed as Homo sapiens) [compound 144] | “+++” (>50 = +++)
71 | 316 (EPKTATVL; listed as Homo sapiens) [compound 316] | “++” (>20% = ++)
72 | 123 (KPSESIYSAL; listed as Homo sapiens) [compound 123] | “+++” (>50 = +++)
73 | 294 (YPLRGSSIF; listed as Homo sapiens) [compound 294] | “+++” (>50 = +++)
